Measured values published in patent US20070244048A1 (published 2007).
Like-named read-outs stand apart in the source and are kept apart here. Non-standard residues stand in square brackets, D forms with d. No end group written: not given here.

Assays:
human NMUR1 [1] = target: T1, human NMUR1 (human, UniProt Q9HB89 1-426); assay: cell-based or functional assay
T1 sequence (looked up): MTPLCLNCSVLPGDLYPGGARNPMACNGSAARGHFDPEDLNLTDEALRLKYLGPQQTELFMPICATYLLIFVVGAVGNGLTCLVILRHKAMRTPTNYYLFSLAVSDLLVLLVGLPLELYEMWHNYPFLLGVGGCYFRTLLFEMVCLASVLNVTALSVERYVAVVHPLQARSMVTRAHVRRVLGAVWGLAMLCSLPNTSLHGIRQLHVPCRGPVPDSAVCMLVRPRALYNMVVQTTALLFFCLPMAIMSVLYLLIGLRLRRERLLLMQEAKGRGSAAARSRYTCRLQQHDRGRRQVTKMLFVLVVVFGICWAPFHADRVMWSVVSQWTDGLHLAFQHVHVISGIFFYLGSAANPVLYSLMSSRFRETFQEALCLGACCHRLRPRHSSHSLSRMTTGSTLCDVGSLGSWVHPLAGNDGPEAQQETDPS

human NMUR2 [2] = target: T2, human NMUR2 (human, UniProt Q9GZQ4 1-415); assay: cell-based or functional assay
T2 sequence (Q9GZQ4 whole entry): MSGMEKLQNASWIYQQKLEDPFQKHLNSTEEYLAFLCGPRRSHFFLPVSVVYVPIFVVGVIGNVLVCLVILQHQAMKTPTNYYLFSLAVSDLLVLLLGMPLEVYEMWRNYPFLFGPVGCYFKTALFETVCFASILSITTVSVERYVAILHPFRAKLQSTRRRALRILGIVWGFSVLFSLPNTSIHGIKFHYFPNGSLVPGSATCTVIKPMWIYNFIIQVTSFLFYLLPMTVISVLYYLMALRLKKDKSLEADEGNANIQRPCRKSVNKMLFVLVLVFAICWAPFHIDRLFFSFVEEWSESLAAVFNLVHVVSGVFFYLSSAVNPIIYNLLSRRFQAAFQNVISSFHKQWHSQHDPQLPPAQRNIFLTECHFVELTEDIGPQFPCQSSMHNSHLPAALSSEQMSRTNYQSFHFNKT

[3] = target: T3, human NMUR1 (human), Q9HB89; assay: 125I-hNMU-25 displacement, HEK cell membranes; settings: remark: other sources report otherwise
T3 chain: T1 sequence (looked up)

human NMUR2 [4] = target: T2, human NMUR2; assay: 125I-hNMU-25 displacement, HEK cell membranes
Protocol: (§1) Confluent cell monolayers expressing NMU receptors (the HEK cells described above) were harvested with phosphate buffered saline, collected by centrifugation, and resuspended in membrane buffer (50 mM TrisCl pH 7.4, 5 mM MgCl₂, 1× Protease Inhibitor Cocktail, 10 μM phosphoramidon). After the cell pellet was homogenized, the solution was centrifuged at 18,000 rpm for 20 minutes at 4° C. The pellet was resuspended in membrane buffer to yield a final concentration of 0.5-5 μg/μL of membrane and stored at −80° C.
(§2) Experiments were performed in assay buffer (25 mM TrisCl, pH 7.4, 10 mM MgCl₂, 2mM EDTA, 1× Protease Inhibitor Cocktail, 100 μg/mL Bacitricin, 10 μM phosphoramidon) in 200 μL volumes in a 96-well format using 2-5 μg of membrane and […] ¹²⁵I-hNMU-25 (about 12,000 cpm/well). For non-specific binding, 1 μM hNMU-25 was added. About 5 μL of peptides were added to measure antagonist activity, and the entire reaction was incubated at room temperature with shaking for 80 minutes. The reaction was terminated by rapid filtration through 0.3% poly-ethylenimine presoaked Millipore 96-well filter plates and washed with ice-cold buffer (5 mM TrisCl pH 7.4, 10 mM MgCl₂, 2.5 mM EDTA, 0.04% Triton X-100). Plates were air-dried overnight at room temperature and recovered radioactivity was determined by standard scintillation counting. IC₅₀ values were determined using GraphPad Prism software.
(§3) Concentration-response curves and radioligand-binding data were fitted using Prism (GraphPad Software). Results are summarized below in Tables 8 and 9.

rat NMUR1-TTG [5] = target: T4, rat NMUR1-TTG (rat, UniProt Q9JJI5 1-425); assay: cell-based or functional assay
T4 sequence (looked up): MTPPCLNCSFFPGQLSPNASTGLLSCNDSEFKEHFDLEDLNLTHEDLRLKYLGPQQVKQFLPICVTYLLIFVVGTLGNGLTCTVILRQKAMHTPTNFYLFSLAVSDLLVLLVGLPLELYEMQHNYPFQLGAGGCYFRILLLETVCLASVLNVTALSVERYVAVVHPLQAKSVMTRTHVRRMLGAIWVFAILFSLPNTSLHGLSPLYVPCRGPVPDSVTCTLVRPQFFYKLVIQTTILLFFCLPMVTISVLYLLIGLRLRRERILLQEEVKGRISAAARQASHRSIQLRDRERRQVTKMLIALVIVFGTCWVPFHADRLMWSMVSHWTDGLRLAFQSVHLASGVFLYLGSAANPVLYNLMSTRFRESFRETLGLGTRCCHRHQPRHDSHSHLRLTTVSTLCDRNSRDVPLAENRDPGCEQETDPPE

mouse NMUR2 [6] = target: T5, mouse NMUR2 (mouse, UniProt Q8BZ39 1-395); assay: cell-based or functional assay
T5 sequence (Q8BZ39 whole entry): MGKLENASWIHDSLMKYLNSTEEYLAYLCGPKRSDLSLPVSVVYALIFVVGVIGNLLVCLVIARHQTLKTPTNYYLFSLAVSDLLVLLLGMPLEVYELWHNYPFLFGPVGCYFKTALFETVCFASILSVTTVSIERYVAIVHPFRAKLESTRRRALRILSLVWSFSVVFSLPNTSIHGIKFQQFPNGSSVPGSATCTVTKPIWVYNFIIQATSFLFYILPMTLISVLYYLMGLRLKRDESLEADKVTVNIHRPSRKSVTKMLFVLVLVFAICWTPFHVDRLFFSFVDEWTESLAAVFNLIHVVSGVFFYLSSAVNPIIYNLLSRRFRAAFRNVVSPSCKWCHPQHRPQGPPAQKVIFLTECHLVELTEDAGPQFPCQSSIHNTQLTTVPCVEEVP

mouse NMUR1-ATG [7] = target: T6, mouse NMUR1-ATG (mouse, UniProt O55040 1-428); assay: cell-based or functional assay
T6 sequence (looked up): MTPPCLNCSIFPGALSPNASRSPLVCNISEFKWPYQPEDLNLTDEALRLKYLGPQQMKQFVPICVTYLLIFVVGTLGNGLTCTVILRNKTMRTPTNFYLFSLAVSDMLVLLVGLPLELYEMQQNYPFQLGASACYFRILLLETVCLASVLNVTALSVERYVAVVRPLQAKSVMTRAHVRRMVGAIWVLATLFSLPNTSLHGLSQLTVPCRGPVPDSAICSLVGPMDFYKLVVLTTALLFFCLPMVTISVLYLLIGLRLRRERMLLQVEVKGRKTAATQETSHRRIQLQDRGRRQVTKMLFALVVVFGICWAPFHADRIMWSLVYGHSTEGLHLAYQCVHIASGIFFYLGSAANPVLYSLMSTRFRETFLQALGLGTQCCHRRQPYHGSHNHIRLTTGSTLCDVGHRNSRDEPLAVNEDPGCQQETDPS

rat NMUR2 [8] = target: T7, rat NMUR2 (rat, UniProt Q9ESQ4 1-395); assay: cell-based or functional assay
T7 sequence (Q9ESQ4 whole entry): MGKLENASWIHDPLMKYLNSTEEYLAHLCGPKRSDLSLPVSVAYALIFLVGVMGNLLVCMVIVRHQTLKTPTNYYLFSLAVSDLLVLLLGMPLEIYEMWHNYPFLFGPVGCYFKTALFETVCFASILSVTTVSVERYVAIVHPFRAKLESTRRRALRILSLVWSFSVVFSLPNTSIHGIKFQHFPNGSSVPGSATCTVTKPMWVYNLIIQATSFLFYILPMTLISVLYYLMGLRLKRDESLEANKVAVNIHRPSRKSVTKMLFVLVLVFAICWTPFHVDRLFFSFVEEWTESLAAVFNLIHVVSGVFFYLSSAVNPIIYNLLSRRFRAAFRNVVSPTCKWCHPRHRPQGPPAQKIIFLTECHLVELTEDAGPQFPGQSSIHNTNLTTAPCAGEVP

rat NMUR1-ATG [9] = target: T8, rat NMUR1-ATG (rat, UniProt Q9JJI5 1-425); assay: cell-based or functional assay
T8 sequence (looked up): T4 sequence (looked up)

human NMUR1 [10] = target: T1, human NMUR1; assay: cell-based or functional assay; remark: listed apart in the source
mouse NMUR1-CTG [11] = target: T9, mouse NMUR1-CTG (mouse, UniProt O55040 1-428); assay: cell-based or functional assay
T9 sequence (looked up): T6 sequence (looked up)

human NMUR2 [12] = target: T2, human NMUR2; assay: cell-based or functional assay; remark: listed apart in the source
rat NMUR1-TTG [13] = target: T4, rat NMUR1-TTG; assay: 125I-hNMU-25 displacement, cell membranes
mouse NMUR2 [14] = target: T5, mouse NMUR2; assay: 125I-hNMU-25 displacement, cell membranes
mouse NMUR1-ATG [15] = target: T6, mouse NMUR1-ATG; assay: 125I-hNMU-25 displacement, cell membranes
rat NMUR2 [16] = target: T7, rat NMUR2; assay: 125I-hNMU-25 displacement, cell membranes
rat NMUR1-ATG [17] = target: T8, rat NMUR1-ATG; assay: 125I-hNMU-25 displacement, cell membranes
human NMUR1 [18] = target: T1, human NMUR1; assay: 125I-hNMU-25 displacement, cell membranes
mouse NMUR1-CTG [19] = target: T9, mouse NMUR1-CTG; assay: 125I-hNMU-25 displacement, cell membranes
human NMUR2 [20] = target: T2, human NMUR2; assay: 125I-hNMU-25 displacement, cell membranes
human NMUR1 [21] = target: T1, human NMUR1; assay: cell-based or functional assay; remark: listed apart in the source
human NMUR2 [22] = target: T2, human NMUR2; assay: cell-based or functional assay; remark: listed apart in the source
human NMUR1 [23] = target: T1, human NMUR1; assay: 125I-hNMU-25 displacement, HEK cell membranes
Protocol: as §1, §2, §3

Question: With FWLFRARN-NH2 [neuromedin U receptor agonist L] as the binder, how does the “% activity” value (human NMUR1 [1]) read?
Answer: Its value is 74%.

Question: What about the “EC50” value (human NMUR1 [1]) of the same binder?
Answer: The value was greater than 1000 nM.

Question: What about the “% activity” value (human NMUR2 [2]) of the same binder?
Answer: The value was 100%.

Question: What about the “EC50” value (human NMUR2 [2]) of the same binder?
Answer: Its value is 6.2 nM.

Question: What about the % activity (binding) [3] of the same binder?
Answer: Its % activity (binding) is 0%.

Question: What about the “% activity (binding)” value (human NMUR2 [4]) of the same binder?
Answer: The value was 100%.

Question: And the IC50 (human NMUR2 [4])?
Answer: Its IC50 is 37 nM.

Question: How did the % activity (rat NMUR1-TTG [5]) turn out when FRVDEEFQSPFASQSRGYF[dL]WRPRN-NH2 (not fully specified) [neuromedin U receptor agonist H] was run?
Answer: The % activity was 91%.

Question: What about the IC50 (nM), functional (rat NMUR1-TTG [5]) of the same binder?
Answer: The IC50 (nM), functional was 153 nM.

Question: What about the % activity (mouse NMUR2 [6]) of the same binder?
Answer: Its % activity is 40%.

Question: And the IC50 (nM), functional (mouse NMUR2 [6])?
Answer: Its IC50 (nM), functional is greater than 1000 nM.

Question: What about the % activity (mouse NMUR1-ATG [7]) of the same binder?
Answer: The % activity was 90%.

Question: And the IC50 (nM), functional (mouse NMUR1-ATG [7])?
Answer: Its IC50 (nM), functional is 25 nM.

Question: And the % activity (rat NMUR2 [8])?
Answer: Its % activity is 42%.

Question: And the IC50 (nM), functional (rat NMUR2 [8])?
Answer: The IC50 (nM), functional was greater than 1000 nM.

Question: What about the % activity (rat NMUR1-ATG [9]) of the same binder?
Answer: The % activity was 95%.

Question: What about the IC50 (nM), functional (rat NMUR1-ATG [9]) of the same binder?
Answer: Its IC50 (nM), functional is 31.1 nM.

Question: And the % activity (human NMUR1 [10])?
Answer: Its % activity is 90%.

Question: What about the IC50 (nM), functional (human NMUR1 [10]) of the same binder?
Answer: Its IC50 (nM), functional is 1.25 nM.

Question: And the % activity (mouse NMUR1-CTG [11])?
Answer: The % activity was 77%.

Question: What about the IC50 (nM), functional (mouse NMUR1-CTG [11]) of the same binder?
Answer: The IC50 (nM), functional was 66 nM.

Question: And the % activity (human NMUR2 [12])?
Answer: The % activity was 0%.

Question: And the IC50 (nM), functional (human NMUR2 [12])?
Answer: Its IC50 (nM), functional is greater than 1000 nM.

Question: And the % inhibition of NMU-25 binding (rat NMUR1-TTG [13])?
Answer: Its % inhibition of NMU-25 binding is 100%.

Question: And the IC50 (rat NMUR1-TTG [13])?
Answer: Its IC50 is 11 nM.

Question: What about the % inhibition of NMU-25 binding (mouse NMUR2 [14]) of the same binder?
Answer: Its % inhibition of NMU-25 binding is 20%.

Question: What about the % inhibition of NMU-25 binding (mouse NMUR1-ATG [15]) of the same binder?
Answer: Its % inhibition of NMU-25 binding is 77%.

Question: What about the IC50 (mouse NMUR1-ATG [15]) of the same binder?
Answer: Its IC50 is 66 nM.

Question: And the % inhibition of NMU-25 binding (rat NMUR2 [16])?
Answer: The % inhibition of NMU-25 binding was 0%.

Question: What about the % inhibition of NMU-25 binding (rat NMUR1-ATG [17]) of the same binder?
Answer: The % inhibition of NMU-25 binding was 100%.

Question: What about the IC50 (rat NMUR1-ATG [17]) of the same binder?
Answer: The IC50 was 15.9 nM.

Question: What about the % inhibition of NMU-25 binding (human NMUR1 [18]) of the same binder?
Answer: The % inhibition of NMU-25 binding was 93%.

Question: What about the IC50 (human NMUR1 [18]) of the same binder?
Answer: The IC50 was 1.1 nM.

Question: And the % inhibition of NMU-25 binding (mouse NMUR1-CTG [19])?
Answer: The % inhibition of NMU-25 binding was 83%.

Question: What about the IC50 (mouse NMUR1-CTG [19]) of the same binder?
Answer: The IC50 was 25 nM.

Question: What about the % inhibition of NMU-25 binding (human NMUR2 [20]) of the same binder?
Answer: Its % inhibition of NMU-25 binding is 7%.

Question: And the IC50 (human NMUR2 [20])?
Answer: The IC50 was 782 nM.

Question: And the % activity (human NMUR1 [21])?
Answer: The % activity was 88%.

Question: And the IC50 (nM), functional (human NMUR1 [21])?
Answer: Its IC50 (nM), functional is 19 nM.

Question: And the IC50 (nM), functional (human NMUR2 [22])?
Answer: Its IC50 (nM), functional is greater than 1000 nM.

Question: What about the % activity (binding) (human NMUR1 [23]) of the same binder?
Answer: The % activity (binding) was 93%.

Question: And the IC50 (human NMUR1 [23])?
Answer: Its IC50 is 1.1 nM.

Question: What about the % activity (binding) (human NMUR2 [4]) of the same binder?
Answer: The % activity (binding) was 7%.

Question: What about the IC50 (human NMUR2 [4]) of the same binder?
Answer: The IC50 was 780 nM.
